This assay concerns the target PD1 aglycosylated at Asn58 (human) (UniProt Q15116). Kind of assay: SPR Biacore T200, antibody captured by anti-human IgG, PD1-ECD as analyte, 25 °C, 1:1 Langmuir.

Among the data in patent US20230183349A1 are Kd, koff and kon values, retold here.

B1: PD1-0103-0312 (antibody, V domains shown)
VH: EVQLLESGGGLVQPGGSLRLSCAASGFSFSSYTMSWVRQAPGKGLEWVATISGGGRDIYYPDSVKGRFTISRDNSKNTLYLQMNSLRAEDTAVYYCVLLTGRVYFALDSWGQGTLVTVSS
VL: DIVMTQSPDSLAVSLGERATINCKASESVDTSDNSFIHWYQQKPGQSPKLLIYRSSTLESGVPDRFSGSGSGTDFTLTISSLQAEDVAVYYCQQNYDVPWTFGQGTKVEIK
B1: the Kd – broadly, a measure of binding affinity in units of concentration – came out at 80.2 nM; the koff (commonly a measure of how fast the partners let go of each other) amounted to 0.027 s⁻¹; the kon (as a rule, the rate constant with which the complex forms) came to 336000 M⁻¹ s⁻¹.
